# Assay results: patent publication US20250277026A1 (NOVAROCK BIOTHERAPEUTICS, published 2025)
# B1: NR.N6.Ab1 (antibody, human IgG1, V domains shown)
# VH: QVQLVQSGAEVKKPGASVKVSCKASGNTFTSYDINWVRQATGQGLEWMGWMNPNSGNTGYAQKFQGRVTMTRNTSISTAYMELSSLRSEDTAVYYCVYYNYVWGSFRFDDWGQGTLVTVSS
# VL: DIQLTQSPSFLSASVGDRVTITCRASQGISSYLAWYQQKPGKAPKLLIYAASTLQSGVPSRFSGSGSGTEFTLAVSSLQPEDFATYYCQQLNSYPYTFGQGTKLEIK
# notes: Human variable domains from Trianni mice; also called NR.NR6.Ab1
# B2: NR.N6.Ab6 (antibody, V domains shown)
# VH: QVQLQESGPGLVKPSETLSLTCTVSGGSISSYYWSWIRQPPGKGLEWIGYIYYSGSTNYNPSLKSRVTISLDTSKNQFSLKLTSVTAADTAVYYCARGSIPVAGTSYFYYYGMDVWGQGTTVTVSS
# VL: EIVMTQSPATLSLSPGERATLSCRASQSVSSSYLSWYQQKPGQAPRLLIYGASTRATGIPARFSGSGSGTDFTLTISSLQPEDFAVYYCQQDYNLPWTFGQGTKVEIK
# What was measured:
# human Claudin-9 [1] = target: T1, human Claudin-9 (human, UniProt O95484 1-217); test: FACS dose response, Claudin-9-HEK293 cells
# T1 construct: On transfected HEK293 cells; also called CLDN9
# T1 sequence: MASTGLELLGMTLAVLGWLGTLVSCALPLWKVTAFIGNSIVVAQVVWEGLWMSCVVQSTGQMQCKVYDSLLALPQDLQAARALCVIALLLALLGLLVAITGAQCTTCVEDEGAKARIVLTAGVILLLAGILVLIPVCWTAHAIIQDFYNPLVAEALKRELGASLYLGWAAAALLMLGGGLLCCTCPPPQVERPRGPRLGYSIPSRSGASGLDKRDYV
# Experimental: (§1) The binding specificity of the disclosed anti-Claudin-6 antibodies were further assessed for binding to Claudin-9 by FACS. Briefly, Claudin-9-HEK293 cells (GenScript, Item #U3288DL180_4) were incubated with recombinant Claudin-6 antibodies for 2 hours at 4° C. Cells were fixed with 2% PFA (Alfa Aesar, cat #: J61899) for 15 minutes at 4° C. and then washed. […] Flow cytometric analyses were performed on a flow cytometry instrument (Intellicyte, IQue plus, Sartorius).
# human Claudin-6 [2] = target: T2, human Claudin-6 (human, UniProt P56747 1-220); test: FACS, OV90 cells (endogenous CLDN6)
# T2 construct: also called CLDN6
# T2 sequence: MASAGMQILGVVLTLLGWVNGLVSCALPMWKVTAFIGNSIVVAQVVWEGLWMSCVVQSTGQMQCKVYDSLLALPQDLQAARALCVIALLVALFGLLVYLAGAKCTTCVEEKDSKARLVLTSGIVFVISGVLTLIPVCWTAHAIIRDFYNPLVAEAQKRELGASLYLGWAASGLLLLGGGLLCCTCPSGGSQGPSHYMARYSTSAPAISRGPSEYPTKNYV
# Experimental: (§2) Cells were fixed with 2% PFA (Alfa Aesar, catalog number: J61899) for 15 minutes at 4° C. and then washed. […] Flow cytometric analyses were performed on a flow cytometry instrument (Intellicyte, IQue plus, Sartorius).
# human Claudin-6 [3] = target: T2, human Claudin-6; test: cell-based or functional assay
# human Claudin-4 [4] = target: T3, human Claudin-4 (human, UniProt O14493 1-209); test: FACS on Claudin-4-CHO-K1 cells, MFI relative to the isotype control
# T3 construct: On transfected CHO-K1 cells, or endogenous on MCF7 cells; also called CLDN4
# T3 sequence: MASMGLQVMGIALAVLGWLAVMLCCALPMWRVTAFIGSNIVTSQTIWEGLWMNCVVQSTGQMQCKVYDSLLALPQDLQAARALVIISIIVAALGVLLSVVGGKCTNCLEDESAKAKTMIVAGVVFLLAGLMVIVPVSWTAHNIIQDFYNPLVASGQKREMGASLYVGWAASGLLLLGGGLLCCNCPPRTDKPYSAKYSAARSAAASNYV
# Experimental: (§3) Briefly, Claudin-6-CHO-K1 cells verse parental CHO-K1 cells were incubated with anti-CLDN6 antibodies for 2 hours at 4° C. Cells were fixed with 2% PFA (Alfa Aesar, cat #: J61899) for 15 minutes at 4° C. and then washed. […] Flow cytometric analyses were performed on a flow cytometry instrument (Intellicyte, IQue plus, Sartorius).
# human Claudin-6 [5] = target: T2, human Claudin-6; test: cell-based or functional assay; remark: listed apart in the source
# human Claudin-4 [6] = target: T3, human Claudin-4; test: FACS on MCF7 cells, which endogenously express Claudin-3 and Claudin-4; MFI relative to the isotype control
# human Claudin-6 [7] = target: T2, human Claudin-6; test: cell-based or functional assay; remark: listed apart in the source
# human Claudin-4 [8] = target: T3, human Claudin-4; test: FACS on Claudin-4-CHO-K1 cells, MFI
# Experimental: as §3
# human Claudin-6 [9] = target: T2, human Claudin-6; test: FACS dose response, Claudin-6-HEK293 cells
# human Claudin-6 [10] = target: T2, human Claudin-6; test: cell-based or functional assay; remark: listed apart in the source
# human Claudin-6 [11] = target: T2, human Claudin-6; test: FACS dose response, NEC8 cells (endogenous CLDN6)
# human Claudin-6 [12] = target: T2, human Claudin-6; test: FACS, NEC8 cells (endogenous CLDN6)
# Experimental: as §2
# human Claudin-6 [13] = target: T2, human Claudin-6; test: FACS, Claudin-6-CHO-K1 cells, 5 µg/ml
# Experimental: as §3
# human Claudin-6 [14] = target: T2, human Claudin-6; test: FACS dose response, Claudin-6-HEK293 cells; remark: listed apart in the source
# human Claudin-9 [15] = target: T1, human Claudin-9; test: FACS, Claudin-9-HEK293 cells, 5 µg/ml
# Experimental: as §1
# human Claudin-6 [16] = target: T2, human Claudin-6; test: FACS dose response, Claudin-6-CHO cells
# Experimental: as §3
# human Claudin-6 [17] = target: T2, human Claudin-6; test: FACS, NEC8 cells (endogenous CLDN6), recombinant antibody
# human Claudin-6 [18] = target: T2, human Claudin-6; test: FACS dose response, Claudin-6-CHO-K1 cells, hybridoma-purified antibody
# Experimental: (§4) The anti-CLDN6 antibodies were also evaluated for their binding affinity to Claudin-6 overexpressing cell lines by FACS.
# human Claudin-6 [19] = target: T2, human Claudin-6; test: FACS dose response, NEC8 cells (endogenous CLDN6), hybridoma-purified antibody
# Experimental: as §2, §4
# human Claudin-6 [20] = target: T2, human Claudin-6; test: FACS dose response, Claudin-6-HEK293 cells, hybridoma-purified antibody
# Experimental: as §4
# human Claudin-9 [21] = target: T1, human Claudin-9; test: FACS, Claudin-9-HEK293 cells, 10 µg/ml, hybridoma-purified antibody
# human Claudin-6 [22] = target: T2, human Claudin-6; test: FACS, Claudin-6-HEK293 cells, 10 µg/ml, hybridoma-purified antibody
# human Claudin-3 = target: T4, human Claudin-3 (human, UniProt O15551 1-220); test: FACS, CHO-K1 cells overexpressing Claudin-3 (CHO-K1-CLDN3), serial dilution, MFI
# T4 construct: On transfected CHO-K1 cells, or endogenous on MCF7 cells; also called CLDN3
# T4 sequence: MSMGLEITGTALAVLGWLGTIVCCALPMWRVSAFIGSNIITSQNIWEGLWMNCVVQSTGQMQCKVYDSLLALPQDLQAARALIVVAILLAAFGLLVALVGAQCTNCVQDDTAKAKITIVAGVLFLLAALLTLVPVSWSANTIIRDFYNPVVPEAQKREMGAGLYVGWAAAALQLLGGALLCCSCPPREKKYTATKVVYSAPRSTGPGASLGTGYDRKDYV
# human Claudin-6 [23] = target: T2, human Claudin-6; test: FACS, NEC8 cells (endogenous CLDN6), 10 µg/ml, hybridoma-purified antibody
# Experimental: as §2
binder,measurement,setting,value
B1,EC50,human Claudin-9 [1],6.72 nM
same,fold MFI over isotype control,human Claudin-6 [2],19 fold
same,"endocytosis-mediated cytotoxicity on OV90 cells, EC50",human Claudin-6 [3],1.08 nM
same,fold MFI over isotype control,human Claudin-4 [4],1.1 x
same,"endocytosis-mediated cytotoxicity (anti-hFc Fab-MMAF, CellTiter-Glo) on NEC8 cells, EC50 mean (St. Dev. 0.11)",human Claudin-6 [5],0.2 nM
same,fold MFI over isotype control,human Claudin-4 [6],0.9 x
same,"endocytosis killing (anti-hFc Fab-MMAF, CellTiter-Glo, 72 h) on NEC8 cells, EC50",human Claudin-6 [7],0.14 nM
same,binding result,human Claudin-4 [8],no binding
same,EC50,human Claudin-6 [9],0.63 nM
same,"ADCC reporter assay on NEC8 cells, EC50",human Claudin-6 [10],0.4 nM
same,EC50,human Claudin-6 [11],1.39 nM
same,fold MFI over isotype control,human Claudin-6 [12],27 fold
same,fold MFI over isotype control,human Claudin-6 [13],28 fold
same,EC50,human Claudin-6 [14],0.55 nM
same,fold MFI over isotype control,human Claudin-9 [15],16 fold
same,EC50,human Claudin-6 [16],0.97 nM
same,fold MFI over isotype control,human Claudin-6 [17],32 fold
B2,EC50,human Claudin-6 [18],3.06 nM
same,EC50,human Claudin-6 [19],5.63 nM
same,EC50,human Claudin-6 [20],4.11 nM
same,fold MFI over isotype control,human Claudin-9 [21],47 fold
same,fold MFI over isotype control,human Claudin-6 [22],60 fold
same,binding result,human Claudin-3,no binding (tested: log 1.8 (about 67 nM))
same,fold MFI over isotype control,human Claudin-6 [23],23 fold
